Experimental data reported in IntAct's records for PubMed 29892012.

B1: Abl interactor 2 (Homo sapiens), Q9NYB9 (parent)
chain: MAELQMLLEEEIPGGRRALFDSYTNLERVADYCENNYIQSADKQRALEETKAYTTQSLASVAYLINTLANNVLQMLDIQASQLRRMESSINHISQTVDIHKEKVARREIGILTTNKNTSRTHKIIAPANLERPVRYIRKPIDYTILDDIGHGVKWLLRFKVSTQNMKMGGLPRTTPPTQKPPSPPMSGKGTLGRHSPYRTLEPVRPPVVPNDYVPSPTRNMAPSQQSPVRTASVNQRNRTYSSSGSSGGSHPSSRSSSRENSGSGSVGVPIAVPTPSPPSVFPAPAGSAGTPPLPATSASAPAPLVPATVPSSTAPNAAAGGAPNLADGFTSPTPPVVSSTPPTGHPVQFYSMNRPASRHTPPTIGGSLPYRRPPSITSQTSLQNQMNGGPFYSQNPVSDTPPPPPPVEEPVFDESPPPPPPPEDYEEEEAAVVEYSDPYAEEDPPWAPRSYLEKVVAIYDYTKDKEDELSFQEGAIIYVIKKNDDGWYEGVMNGVTGLFPGNYVESIMHYSE

Variants of: B1
Conditions: with ift20_human IFT20, Q8IY31
E202K was tested, and the “effect of a mutation on the interaction” value was “with no effect”.

Variants of: B1
Conditions: with wipf1_human WIPF1, O43516
Chain of wipf1_human WIPF1, O43516 (O43516 whole entry): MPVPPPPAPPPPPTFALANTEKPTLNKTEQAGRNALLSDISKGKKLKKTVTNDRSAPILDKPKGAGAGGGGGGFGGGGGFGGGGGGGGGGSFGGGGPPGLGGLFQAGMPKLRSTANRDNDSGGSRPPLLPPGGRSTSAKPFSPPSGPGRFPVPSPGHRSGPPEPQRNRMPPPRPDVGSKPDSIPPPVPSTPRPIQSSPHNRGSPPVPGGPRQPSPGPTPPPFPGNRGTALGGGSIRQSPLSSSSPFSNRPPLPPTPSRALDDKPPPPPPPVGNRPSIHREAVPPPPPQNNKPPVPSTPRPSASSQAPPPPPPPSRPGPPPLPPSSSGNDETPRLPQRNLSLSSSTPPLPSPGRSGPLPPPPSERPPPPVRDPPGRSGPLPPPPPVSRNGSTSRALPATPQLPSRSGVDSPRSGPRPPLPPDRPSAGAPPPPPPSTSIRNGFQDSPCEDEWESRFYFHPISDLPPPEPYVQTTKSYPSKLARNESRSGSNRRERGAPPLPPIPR
For E202K, the “effect of a mutation on the interaction” value was “with no effect”.

Variants of: B1
Conditions: with k1h1_human KRT31, Q15323
Chain of k1h1_human KRT31, Q15323 (Q15323 whole entry): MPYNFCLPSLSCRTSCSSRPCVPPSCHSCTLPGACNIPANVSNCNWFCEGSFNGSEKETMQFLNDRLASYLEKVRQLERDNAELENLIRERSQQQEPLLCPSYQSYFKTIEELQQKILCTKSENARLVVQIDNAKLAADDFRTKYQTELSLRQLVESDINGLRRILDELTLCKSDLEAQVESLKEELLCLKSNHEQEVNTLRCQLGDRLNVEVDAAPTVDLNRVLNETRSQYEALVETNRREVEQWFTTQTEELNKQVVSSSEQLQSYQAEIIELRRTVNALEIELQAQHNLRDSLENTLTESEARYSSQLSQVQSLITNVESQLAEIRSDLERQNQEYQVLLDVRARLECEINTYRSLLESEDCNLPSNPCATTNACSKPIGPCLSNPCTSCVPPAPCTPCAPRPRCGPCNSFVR
With E202K the “effect of a mutation on the interaction” value was “with no effect”.

Variants of: B1
Conditions: with aapk2_human PRKAA2, P54646
E202K was tested, and the “effect of a mutation on the interaction” value was “with no effect”.

Variants of: B1
Conditions: with skt_human KIAA1217, Q5T5P2
E202K was tested, and the “effect of a mutation on the interaction” value was “with no effect”.

Variants of: B1
Conditions: with aapk1_human PRKAA1, Q13131
Chain of aapk1_human PRKAA1, Q13131 (Q13131 whole entry, looked up): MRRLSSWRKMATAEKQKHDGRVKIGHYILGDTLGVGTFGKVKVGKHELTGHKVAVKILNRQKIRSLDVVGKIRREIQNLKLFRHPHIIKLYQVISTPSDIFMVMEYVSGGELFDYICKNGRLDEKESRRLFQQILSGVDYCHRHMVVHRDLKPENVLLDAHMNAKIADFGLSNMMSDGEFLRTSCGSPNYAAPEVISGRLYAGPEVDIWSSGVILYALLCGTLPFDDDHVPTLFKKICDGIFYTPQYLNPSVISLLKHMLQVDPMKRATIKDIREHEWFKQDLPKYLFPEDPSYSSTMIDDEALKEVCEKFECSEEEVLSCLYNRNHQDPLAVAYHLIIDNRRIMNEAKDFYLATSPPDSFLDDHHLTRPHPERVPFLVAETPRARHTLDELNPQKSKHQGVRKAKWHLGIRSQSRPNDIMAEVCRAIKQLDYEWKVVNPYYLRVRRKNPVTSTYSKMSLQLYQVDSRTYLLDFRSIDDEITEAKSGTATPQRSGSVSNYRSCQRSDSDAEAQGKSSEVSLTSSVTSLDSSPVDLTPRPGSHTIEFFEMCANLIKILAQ
In the case of E202K, the “effect of a mutation on the interaction” value is reported as “with no effect”.

Variants of: B1
Conditions: with eif3h_human EIF3H
With E202K the “effect of a mutation on the interaction” value was “with no effect”.

Variants of: B1
Conditions: with hnrpk_human HNRNPK
E202K was tested, and the “effect of a mutation on the interaction” value was “with no effect”.

Variants of: B1
Conditions: with tri32_human TRIM32, Q13049
E202K was tested, and the “effect of a mutation on the interaction” value was “with no effect”.

Variants of: B1
Conditions: with vasp_human VASP
In the case of E202K, the “effect of a mutation on the interaction” value is reported as “with no effect”.

Variants of: B1
Conditions: with ppif_human PPIF
E202K was tested, and the “effect of a mutation on the interaction” value was “with no effect”.

Variants of: B1
Conditions: with KRT15, P19012
With E202K the “effect of a mutation on the interaction” value was “with no effect”.

Variants of: B1
Conditions: with nup62_human NUP62, P37198
Chain of nup62_human NUP62, P37198 (P37198 whole entry): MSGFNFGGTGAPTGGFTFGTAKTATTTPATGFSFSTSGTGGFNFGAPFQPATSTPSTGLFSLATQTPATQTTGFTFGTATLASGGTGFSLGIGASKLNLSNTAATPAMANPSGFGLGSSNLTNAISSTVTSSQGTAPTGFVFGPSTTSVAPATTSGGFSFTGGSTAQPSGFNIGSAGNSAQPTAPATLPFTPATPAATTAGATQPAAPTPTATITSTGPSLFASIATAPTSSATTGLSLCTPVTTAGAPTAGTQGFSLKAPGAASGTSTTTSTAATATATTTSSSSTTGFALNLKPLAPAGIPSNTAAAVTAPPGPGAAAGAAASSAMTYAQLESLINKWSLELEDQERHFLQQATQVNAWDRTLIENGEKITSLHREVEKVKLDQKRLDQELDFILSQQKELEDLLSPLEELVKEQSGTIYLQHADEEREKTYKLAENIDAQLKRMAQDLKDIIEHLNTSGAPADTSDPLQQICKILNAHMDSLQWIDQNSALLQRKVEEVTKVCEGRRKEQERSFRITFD
E202K was tested, and the “effect of a mutation on the interaction” value was “with no effect”.

Variants of: B1
Conditions: with KRT19, P08727
Chain of KRT19, P08727 (P08727 whole entry): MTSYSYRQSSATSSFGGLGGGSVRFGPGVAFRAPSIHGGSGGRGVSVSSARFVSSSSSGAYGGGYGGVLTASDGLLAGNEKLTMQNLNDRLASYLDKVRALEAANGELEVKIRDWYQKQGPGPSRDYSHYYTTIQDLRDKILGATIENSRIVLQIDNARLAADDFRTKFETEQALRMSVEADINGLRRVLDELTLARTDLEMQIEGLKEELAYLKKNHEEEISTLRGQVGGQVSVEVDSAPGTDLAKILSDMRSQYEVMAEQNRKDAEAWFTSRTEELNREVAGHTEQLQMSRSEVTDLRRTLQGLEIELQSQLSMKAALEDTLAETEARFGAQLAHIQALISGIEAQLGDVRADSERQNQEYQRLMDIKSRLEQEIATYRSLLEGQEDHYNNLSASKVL
With E202K the “effect of a mutation on the interaction” value was “with no effect”.

Variants of: B1
Conditions: with rhg32_human ARHGAP32, A7KAX9
Chain of rhg32_human ARHGAP32, A7KAX9 (A7KAX9 whole entry): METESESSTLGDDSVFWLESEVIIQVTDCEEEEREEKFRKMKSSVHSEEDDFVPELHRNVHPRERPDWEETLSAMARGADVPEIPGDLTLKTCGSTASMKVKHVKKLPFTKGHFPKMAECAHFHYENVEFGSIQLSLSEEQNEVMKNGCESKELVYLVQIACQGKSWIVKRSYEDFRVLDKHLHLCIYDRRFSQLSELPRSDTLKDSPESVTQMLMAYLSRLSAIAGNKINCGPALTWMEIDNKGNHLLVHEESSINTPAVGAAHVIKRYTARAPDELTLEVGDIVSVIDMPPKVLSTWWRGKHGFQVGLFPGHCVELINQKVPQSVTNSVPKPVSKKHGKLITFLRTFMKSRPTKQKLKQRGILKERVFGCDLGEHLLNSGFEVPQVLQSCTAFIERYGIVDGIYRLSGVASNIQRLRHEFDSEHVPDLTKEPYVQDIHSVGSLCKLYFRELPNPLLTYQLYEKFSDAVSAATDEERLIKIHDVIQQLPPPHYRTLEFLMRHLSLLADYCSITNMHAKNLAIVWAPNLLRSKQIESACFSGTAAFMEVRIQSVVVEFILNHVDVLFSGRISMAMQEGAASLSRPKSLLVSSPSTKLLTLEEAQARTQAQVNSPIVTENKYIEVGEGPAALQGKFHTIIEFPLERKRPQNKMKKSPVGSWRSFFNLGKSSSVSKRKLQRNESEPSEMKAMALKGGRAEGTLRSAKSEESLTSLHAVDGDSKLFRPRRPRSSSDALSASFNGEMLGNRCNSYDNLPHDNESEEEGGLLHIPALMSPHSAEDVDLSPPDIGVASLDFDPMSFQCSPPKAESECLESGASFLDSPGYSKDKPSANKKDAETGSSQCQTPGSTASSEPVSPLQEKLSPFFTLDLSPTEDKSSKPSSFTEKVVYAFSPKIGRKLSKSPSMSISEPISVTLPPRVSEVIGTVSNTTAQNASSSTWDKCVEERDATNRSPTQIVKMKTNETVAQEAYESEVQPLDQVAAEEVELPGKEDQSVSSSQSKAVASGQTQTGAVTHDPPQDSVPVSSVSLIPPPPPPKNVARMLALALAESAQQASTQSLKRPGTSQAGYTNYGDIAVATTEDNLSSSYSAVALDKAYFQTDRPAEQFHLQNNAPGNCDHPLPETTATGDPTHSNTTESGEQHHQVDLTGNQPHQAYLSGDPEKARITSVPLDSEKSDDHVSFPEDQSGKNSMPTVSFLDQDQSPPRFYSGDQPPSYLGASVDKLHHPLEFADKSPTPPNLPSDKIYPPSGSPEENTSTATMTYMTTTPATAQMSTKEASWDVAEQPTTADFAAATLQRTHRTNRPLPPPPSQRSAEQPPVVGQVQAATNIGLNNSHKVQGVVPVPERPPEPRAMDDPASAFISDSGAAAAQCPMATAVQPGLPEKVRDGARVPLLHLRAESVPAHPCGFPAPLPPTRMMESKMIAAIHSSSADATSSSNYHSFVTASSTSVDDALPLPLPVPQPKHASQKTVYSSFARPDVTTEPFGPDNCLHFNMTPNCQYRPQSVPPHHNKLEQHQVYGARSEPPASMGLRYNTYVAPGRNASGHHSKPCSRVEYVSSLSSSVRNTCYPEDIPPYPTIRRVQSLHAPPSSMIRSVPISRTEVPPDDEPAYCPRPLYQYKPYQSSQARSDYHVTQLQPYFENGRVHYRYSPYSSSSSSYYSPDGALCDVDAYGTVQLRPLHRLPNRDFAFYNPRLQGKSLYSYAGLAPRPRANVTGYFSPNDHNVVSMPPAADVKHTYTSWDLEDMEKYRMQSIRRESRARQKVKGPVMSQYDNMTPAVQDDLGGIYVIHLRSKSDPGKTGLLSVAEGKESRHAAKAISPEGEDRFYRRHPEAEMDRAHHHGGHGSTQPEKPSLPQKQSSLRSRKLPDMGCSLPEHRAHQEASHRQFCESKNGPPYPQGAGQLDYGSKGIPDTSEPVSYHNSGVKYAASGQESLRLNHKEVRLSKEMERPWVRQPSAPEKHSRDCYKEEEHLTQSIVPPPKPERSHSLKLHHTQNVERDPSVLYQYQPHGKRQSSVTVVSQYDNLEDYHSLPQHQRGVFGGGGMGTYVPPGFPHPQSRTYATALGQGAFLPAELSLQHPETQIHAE
In the case of E202K, the “effect of a mutation on the interaction” value is reported as “with no effect”.

Variants of: B1
Conditions: with nck2_human NCK2, O43639
Chain of nck2_human NCK2, O43639 (O43639 whole entry): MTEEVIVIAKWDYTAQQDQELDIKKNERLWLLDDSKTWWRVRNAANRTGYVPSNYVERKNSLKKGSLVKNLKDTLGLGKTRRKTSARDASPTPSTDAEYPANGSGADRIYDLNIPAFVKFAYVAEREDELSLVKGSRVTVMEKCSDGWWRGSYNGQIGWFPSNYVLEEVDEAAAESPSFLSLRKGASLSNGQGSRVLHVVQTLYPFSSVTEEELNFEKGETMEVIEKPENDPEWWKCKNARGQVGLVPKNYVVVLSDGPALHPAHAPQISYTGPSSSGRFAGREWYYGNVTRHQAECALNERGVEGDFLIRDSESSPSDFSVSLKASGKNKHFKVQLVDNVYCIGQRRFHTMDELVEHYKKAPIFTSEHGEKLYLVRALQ
With E202K the “effect of a mutation on the interaction” value was “with no effect”.

Variants of: B1
Conditions: with hgs_human HGS
With E202K the “effect of a mutation on the interaction” value was “with no effect”.

Variants of: B1
Conditions: with pcm1_human PCM1, Q15154
With E202K the “effect of a mutation on the interaction” value was “with no effect”.

Variants of: B1
Conditions: with stam2_human STAM2, O75886
E202K was tested, and the “effect of a mutation on the interaction” value was “with no effect”.

Variants of: B1
Conditions: with vinc_human VCL
With E202K the “effect of a mutation on the interaction” value was “disrupting interaction strength”.

Variants of: B1
Conditions: with crx_human CRX
With E202K the “effect of a mutation on the interaction” value was “with no effect”.

Variants of: B1
Conditions: with mr1l1_human MRFAP1L1, Q96HT8
Chain of mr1l1_human MRFAP1L1, Q96HT8 (Q96HT8 whole entry): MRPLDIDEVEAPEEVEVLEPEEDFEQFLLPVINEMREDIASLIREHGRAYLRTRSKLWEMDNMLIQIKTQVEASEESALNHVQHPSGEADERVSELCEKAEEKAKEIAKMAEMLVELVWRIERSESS
In the case of E202K, the “effect of a mutation on the interaction” value is reported as “disrupting interaction strength”.

Variants of: B1
Conditions: with sdcb1_human SDCBP
In the case of E202K, the “effect of a mutation on the interaction” value is reported as “disrupting interaction strength”.

Variants of: B1
Conditions: with efs_human EFS
With E202K the “effect of a mutation on the interaction” value was “with no effect”.
